Measured values as given in PMC8617249, “Pharmacokinetic and pharmacodynamic similarity between SAR341402 insulin aspart and Japan-approved NovoRapid in healthy Japanese subjects” (Scientific Reports, 2021).

Legend:
[1] = Plasma insulin aspart pharmacokinetics after a single subcutaneous dose (LC-MS/MS, noncompartmental); format: in vivo, human; details: single 0.3 U/kg s.c.; for INS-AUCinf, gMean (% CV) / INS-Cmax, gMean (% CV) / INS-AUClast, gMean (% CV): healthy Japanese males, fasting, plasma, LC-MS/MS, geometric mean (%CV); for INS-AUCinf, gMean (% CV): extrapolated to infinity; for INS-AUCinf, gMean (% CV) / INS-AUClast, gMean (% CV): N = 39/40; for INS-Cmax, gMean (% CV): N = 39 SAR-Asp, 40 NN-Asp-Jp; for INS-AUClast, gMean (% CV): time 0 to last quantifiable point
Source text: Following a screening visit 3–28 days before the first period, subjects enrolled into the study were admitted to the study clinic on the day before dosing. On the day of treatment, they were randomized (computer-generated by sponsor) to one of the two treatment sequences (see Supplementary Fig. S1). Subjects received a single subcutaneous dose of 0.3 U/kg SAR-Asp or NN-Asp-Jp in the first treatment period in randomized order followed by the other drug in the second treatment period. A wash-out period of 7–18 days separated each treatment period, with an end-of-study visit performed 4–8 days after the last dose.
Venous blood samples for pharmacokinetic analysis were collected before dosing of study drug, and then every 15 to 60 min during the 10 h clamp period. Samples were centrifuged within 20 min of collection. Plasma was collected and kept frozen (− 60 to − 80 °C) until analysis. Plasma concentrations of SAR-Asp and NN-Asp-Jp were analyzed by using a validated liquid chromatography-tandem mass spectrometry (LC–MS/MS) assay at Syneos Health (Quebec, Canada). Plasma concentrations within the validated concentration range (100–8000 pg/mL) were used to calculated pharmacokinetic parameters. Inter-assay precision (% coefficient of variation [CV]) and inter-assay accuracy (%bias) during validation were ≤ 15%.
The pharmacokinetic analysis dataset included subjects who completed at least one treatment period, had measurable insulin aspart concentrations and no major or critical deviations. Parameter estimates for SAR-Asp and NN-Asp-Jp were calculated by using standard noncompartmental methods with Phoenix WinNonlin 8.1 (Certara, Princeton, NJ). Area under the plasma insulin aspart concentration–time curve was calculated by the trapezoidal method from 0 to the time of the last concentration above the limit of quantification (INS-AUClast) and extrapolated to infinity (INS-AUCinf). Maximum plasma insulin aspart concentration observed (INS-Cmax) and INS-AUClast were the primary pharmacokinetic endpoints of the study. INS-AUCinf was a secondary endpoint.
(§1) Log-transformed pharmacokinetic and pharmacodynamic parameter estimates for SAR-Asp and NN-Asp-Jp were analyzed using a linear mixed-effects model with period, sequence, and treatment as fixed effects and subject as a random effect. For each parameter, the model-based difference in treatment means along with the confidence limits (90% for pharmacokinetic parameters, 95% for pharmacodynamic parameters) was back-transformed to provide estimates for the ratio of geometric means (gMean) between treatments (SAR-Asp/NN-Asp-Jp) and the corresponding confidence limits. Similarity for the pharmacokinetic parameters (INS-AUCinf and INS-Cmax) and bioequipotency for the pharmacodynamic parameters (GIR-AUC0–10 h and GIRmax) was concluded if the confidence limits (90% and 95% confidence intervals [CIs], respectively) of the treatment ratios were entirely within the 0.80–1.25 equivalence interval, in agreement with regulatory guidance[2],[18]. Data was analyzed using SAS v9.4 (SAS Institute, Cary, NC).

healthy Japanese males = assay: 10 h automated euglycemic clamp, glucose infusion rate (glucodynamics); format: in vivo, human; details: single 0.3 U/kg s.c.; for GIR-AUC0-10 h, gMean (% CV) / GIRmax, gMean (% CV) / median GIR-tmax (time to reach GIRmax): healthy Japanese males, 10 h euglycemic clamp; for GIR-AUC0-10 h, gMean (% CV): body weight standardized GIR, N = 36 SAR-Asp, 38 NN-Asp-Jp; for GIR-AUC0-10 h, gMean (% CV) / GIRmax, gMean (% CV): geometric mean (%CV); for GIRmax, gMean (% CV): smoothed GIR (LOESS, 0.06), N = 36/38
Method: Each dosing visit included a 10 h automated euglycemic clamp procedure (STG-55, Artificial Endocrine Pancreas; Nikkiso Co, Ltd, Tokyo, Japan)[13]. The premise of performing the clamp procedure is that the blood glucose lowering effect of an administered insulin is antagonized by a variable infusion of glucose so that blood glucose is maintained (or clamped) at a target level[2],[14]. The metabolic profile of the investigated insulin is characterized by the glucose infusion rate (GIR) needed to keep blood glucose as close as possible at its predefined target level during the glucose clamp.
Following an overnight fast of at least 10 h, subjects were connected to the clamp device and their baseline blood glucose was determined (via glucose oxidase sensors that measure whole-blood glucose levels) before dosing of the study drug. For each subject, this was calculated as the mean of four glucose measurements at 30, 20, 10 and 1 min before administration of the study drugs. The clamp procedure was not performed in those subjects having a baseline glucose level less than 70 mg/dL ([…]). After dosing, onset of insulin action in each subject was when the blood glucose dropped below the target level of the clamp procedure, which was when it was 5 mg/dL (0.28 mmol/L) less than their fasting baseline value.
Blood glucose levels were measured in 1-min intervals, and using a predefined algorithm the clamp device automatically administered a variable infusion of 10% glucose in response to changes in glucose to maintain each subject at their target glucose level. The GIR, being the amount of external glucose needed to keep a subject’s blood glucose concentration at its target level, was continuously measured, and recorded by the STG-55 device. GIR profiles reflected the metabolic effects of SAR-Asp and NN-Asp-Jp over time.
The GIR over time was the primary pharmacodynamic parameter measured during the clamp procedure. The area under the body weight-standardized GIR time curve [GIR-AUC] measured insulin mediated glucose uptake into tissues. Subjects completing at least one clamp procedure with no major or critical deviations were included in the pharmacodynamic analysis dataset. Individual GIR values in each treatment group were standardized for body weight and subjected to a smoothing procedure using a locally weighted scatterplot smoothing (LOESS) function (SAS, PROC LOESS, factor 0.06). A smoothing factor of 6% was used based on the expected morphology of the GIR-profiles. Individual blood glucose levels were also subjected to a smoothing procedure. Fitted data were used to calculate the pharmacodynamic parameters, including the primary parameters of maximum smoothed body weight standardized GIR (GIRmax) and GIR-AUC over 10 h (GIR-AUC0–10 h), and the secondary parameter of time to reach GIRmax (GIR-tmax).
as §1

[2] = ratio of geometric means, linear mixed-effects model, equivalence range 0.80–1.25
[3] = ratio of geometric means, linear mixed-effects model, 10 h clamp, equivalence range 0.80–1.25

Substance	INS-AUCinf, gMean (% CV) [1]	INS-Cmax, gMean (% CV) [1]	INS-AUClast, gMean (% CV) [1]	GIR-AUC0-10 h, gMean (% CV) (healthy Japanese males)	GIRmax, gMean (% CV) (healthy Japanese males)	median GIR-tmax (time to reach GIRmax) (healthy Japanese males) [h]	INS-AUCinf mean ratio SAR-Asp/NN-Asp-Jp, point estimate (90% CI) [1, 2]	INS-AUClast mean ratio SAR-Asp/NN-Asp-Jp, point estimate (90% CI) [1, 2]	INS-Cmax mean ratio SAR-Asp/NN-Asp-Jp, point estimate (90% CI) [1, 2]	GIR-AUC0-10 h mean ratio SAR-Asp/NN-Asp-Jp, point estimate (95% CI) (healthy Japanese males; [3])	GIRmax mean ratio SAR-Asp/NN-Asp-Jp, point estimate (95% CI) (healthy Japanese males; [3])
insulin aspart [NN-Asp-Jp]	15,200 (27) pg·h/mL	6690 (31) pg/mL	15,100 (27) pg·h/mL	2098.06 (23.5) mg/kg	8.72 (21.0) mg/(kg·min)	2.35					
insulin aspart [SAR-Asp]	15,400 (26) pg·h/mL	6690 (32) pg/mL	15,300 (27) pg·h/mL	2054.12 (22.2) mg/kg	8.70 (20.9) mg/(kg·min)	2.82	1.02	1.02	1.00	1.00	1.01
